The test deals with T1, integrin alphaEbeta7 (human, UniProt P38570 19-1179; P26010 20-798).
T1 construct: whole, on cells; In the occupancy experiments it stood on T lymphocytes from patients' colonic biopsies; also called αEβ7; αEβ7 receptor
The test is described as follows: flow cytometry on CD45+CD3+CD4- T lymphocytes from a pre-dose colonic biopsy. On the procedure:
Etrolizumab binds the β7 subunits of the heterodimeric integrins α4β7 and αEβ7. While α4β7 is expressed on leukocyte subsets in both blood and mucosal tissue, αEβ7 is primarily confined to intraepithelial lymphocytes and dendritic cells in mucosal tissue. Therefore, to evaluate the pharmacology and mechanism of action of etrolizumab at the site of action as well as in circulation, colonic tissue was assessed in addition to peripheral blood. Colonic tissue biopsies were collected using standard surgical procedures from 23 consented, study-enrolled patients at pre-dose (screen) and at certain post dose time points (day 43 and day 71). […]
Similar to the flow cytometry assay conducted on peripheral blood cells, occupancy of β7 integrin receptors on colonic tissue T lymphocyte subsets was assessed by staining with fluorescently labeled (PE label) FIB504, while expression of β7 integrin receptors was evaluated using fluorescently labeled 9D8 (PE label). […] Samples were then acquired on a BD FACS Cantoll™ or a BD FACSCalibur™ (BD Biosciences, San Jose, Calif. USA) and analyzed by gating on subsets of αEβ7-expressing and α4β7-expressing CD3+CD45+, αEβ7-expressing and α4β7-expressing CD3+CD4+CD45+, and αEβ7-expressing and α4β7-expressing CD3+CD4-CD45+ T cell subsets. […]
In general terms: In flow cytometry, cells or beads pass a laser one at a time.

T1 sequence (P38570 19-1179, chain 1 of 2): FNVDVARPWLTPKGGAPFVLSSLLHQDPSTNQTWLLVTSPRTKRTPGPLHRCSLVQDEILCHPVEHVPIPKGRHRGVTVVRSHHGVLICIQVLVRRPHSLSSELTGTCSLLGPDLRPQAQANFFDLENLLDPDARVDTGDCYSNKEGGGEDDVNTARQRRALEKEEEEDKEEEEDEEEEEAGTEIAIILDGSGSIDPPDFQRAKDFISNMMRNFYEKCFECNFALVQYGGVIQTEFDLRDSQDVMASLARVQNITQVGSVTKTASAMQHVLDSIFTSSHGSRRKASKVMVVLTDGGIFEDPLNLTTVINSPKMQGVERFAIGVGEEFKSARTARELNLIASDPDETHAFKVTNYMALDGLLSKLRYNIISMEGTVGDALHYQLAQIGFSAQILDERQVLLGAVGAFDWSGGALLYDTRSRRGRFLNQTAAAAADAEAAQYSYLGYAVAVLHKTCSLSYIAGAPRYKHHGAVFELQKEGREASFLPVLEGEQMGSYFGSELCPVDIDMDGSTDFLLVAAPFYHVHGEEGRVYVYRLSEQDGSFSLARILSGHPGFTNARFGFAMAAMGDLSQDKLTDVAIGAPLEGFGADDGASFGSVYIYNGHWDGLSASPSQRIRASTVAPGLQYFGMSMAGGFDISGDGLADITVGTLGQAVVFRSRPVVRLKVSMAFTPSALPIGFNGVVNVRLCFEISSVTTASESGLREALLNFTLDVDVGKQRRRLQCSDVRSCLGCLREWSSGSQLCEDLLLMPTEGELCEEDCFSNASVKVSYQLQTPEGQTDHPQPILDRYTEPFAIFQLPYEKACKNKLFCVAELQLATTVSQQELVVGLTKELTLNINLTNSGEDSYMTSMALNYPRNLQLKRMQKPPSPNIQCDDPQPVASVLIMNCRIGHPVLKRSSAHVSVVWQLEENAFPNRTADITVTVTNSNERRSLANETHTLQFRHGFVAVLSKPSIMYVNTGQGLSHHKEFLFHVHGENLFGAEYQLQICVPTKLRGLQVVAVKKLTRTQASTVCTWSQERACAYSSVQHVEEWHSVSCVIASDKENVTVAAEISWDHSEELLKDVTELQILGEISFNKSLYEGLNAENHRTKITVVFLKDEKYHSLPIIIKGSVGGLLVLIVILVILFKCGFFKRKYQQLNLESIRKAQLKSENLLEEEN
T1 sequence (P26010 20-798, chain 2 of 2): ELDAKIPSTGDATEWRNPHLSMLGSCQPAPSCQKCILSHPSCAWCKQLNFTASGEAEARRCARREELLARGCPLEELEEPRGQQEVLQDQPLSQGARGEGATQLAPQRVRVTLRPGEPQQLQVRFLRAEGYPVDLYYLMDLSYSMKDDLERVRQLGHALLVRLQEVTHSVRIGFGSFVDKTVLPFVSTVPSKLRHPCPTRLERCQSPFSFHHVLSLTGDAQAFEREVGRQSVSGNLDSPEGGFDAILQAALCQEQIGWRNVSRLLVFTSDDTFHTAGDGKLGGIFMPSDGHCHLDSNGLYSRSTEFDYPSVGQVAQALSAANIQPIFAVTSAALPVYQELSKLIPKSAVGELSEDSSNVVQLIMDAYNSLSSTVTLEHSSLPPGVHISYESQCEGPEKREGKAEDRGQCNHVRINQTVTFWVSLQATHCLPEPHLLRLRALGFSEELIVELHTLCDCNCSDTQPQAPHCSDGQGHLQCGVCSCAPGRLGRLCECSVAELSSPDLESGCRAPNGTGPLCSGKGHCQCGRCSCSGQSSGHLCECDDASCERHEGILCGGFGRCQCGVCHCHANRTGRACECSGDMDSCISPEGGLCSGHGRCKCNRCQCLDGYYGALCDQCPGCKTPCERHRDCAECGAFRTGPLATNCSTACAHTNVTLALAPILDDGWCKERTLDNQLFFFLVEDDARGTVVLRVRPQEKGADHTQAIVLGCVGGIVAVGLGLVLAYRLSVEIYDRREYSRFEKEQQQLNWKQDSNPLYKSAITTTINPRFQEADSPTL

B1: FIB504 (rat anti-mouse/human beta7 monoclonal antibody), fluorescently labeled (antibody, V domains shown)
VH: EVQLQESGPGLVKPSQSLSLTCSVTGFFITNNYWGWIRKFPGNKMEWMGYISYSGSTSYNPSLKSRISITRDTSKNQFFLQLNSVTTEDTATYYCAMTGSSGYFDFWGPGTMVTVSS
VL: DVVMTQSPATLSVTPGERISLSCRASESVDTYLHWYQQKPNESPRLLIKYASQSISGIPSRFSGSGSGTDFTLSINGVELEDLSIYYCQQGNSLPNTFGAGTKLELKR
notes: Bought reagent (BD Biosciences), fluorescently labeled (PE label for colonic tissue)
On to B1, for which the binding result was “binds”.

For the origin of these results see patent US20160209426A1 (Genentech, published 2016).
